Assay [1] deals with Aβ aggregates in the high molecular weight (HMW) fraction of pooled soluble human AD brain extract (>70 kDa to ~700 kDa) (human) (UniProt P05067). The experiment in a line: sandwich SPR: HMW material captured by immobilized Clone 4, detected by aducanumab.
Assay [2] shares this target. The experiment in a line: sandwich SPR: HMW material captured by immobilized Clone 5, detected by aducanumab.
Assay [3] has as its target AβO in the low molecular weight (LMW) fraction of pooled soluble human AD brain extract (~8 kDa to ~70 kDa) (human) (UniProt P05067). The experiment in a line: sandwich SPR: LMW material captured by immobilized Clone 4, detected by aducanumab.
Assay [4] deals with Aβ aggregates in the high molecular weight (HMW) fraction of pooled soluble human AD brain extract (>70 kDa to ~700 kDa) (human) (UniProt P05067). Nature of the assay: sandwich SPR: HMW material captured by immobilized Clone 14, detected by aducanumab.
Assay [5] has the same target. The experiment in a line: sandwich SPR: HMW material captured by immobilized Parental, detected by aducanumab.
The target in assay [6] is AβO in the low molecular weight (LMW) fraction of pooled soluble human AD brain extract (~8 kDa to ~70 kDa) (human) (UniProt P05067). The experiment in a line: sandwich SPR: LMW material captured by immobilized Clone 14, detected by aducanumab.
Assay [7] has the same target. Nature of the assay: sandwich SPR: LMW material captured by immobilized Parental, detected by aducanumab.

Take Aducanumab (antibody): the Bound Ab detection by aducanumab, HMW (BRU) in assay [1] turned out to be 10.4 BRU; in assay [2] it was 1.25 BRU; in assay [4], 5.7 BRU; in assay [5] it was 8.3 BRU. For the same substance, the results for the Bound Ab detection by aducanumab, LMW (BRU) in assay [3], in assay [6] and in assay [7] were 7.7 BRU, 4.4 BRU and 5.8 BRU, respectively.

(Values after patent publication US20230141177A1.)
